Our source for the Kd values is patent US20250179186A1 (REGENTS OF THE UNIVERSITY OF MINNESOTA, published 2025).

Assay [1] deals with T1, human B7-H3 expressed by Mile Sven 1 cells stably transfected to express human B7-H3 (MS1-B7-H3) (human, UniProt Q5ZPR3 29-534).
T1 construct: whole, on cells; In the FACS sorts it was used as detergent solubilized, non-specifically biotinylated MS1-B7-H3 cell lysate; also called CD276; MS1-B7-H3 cells
T1 sequence (looked up): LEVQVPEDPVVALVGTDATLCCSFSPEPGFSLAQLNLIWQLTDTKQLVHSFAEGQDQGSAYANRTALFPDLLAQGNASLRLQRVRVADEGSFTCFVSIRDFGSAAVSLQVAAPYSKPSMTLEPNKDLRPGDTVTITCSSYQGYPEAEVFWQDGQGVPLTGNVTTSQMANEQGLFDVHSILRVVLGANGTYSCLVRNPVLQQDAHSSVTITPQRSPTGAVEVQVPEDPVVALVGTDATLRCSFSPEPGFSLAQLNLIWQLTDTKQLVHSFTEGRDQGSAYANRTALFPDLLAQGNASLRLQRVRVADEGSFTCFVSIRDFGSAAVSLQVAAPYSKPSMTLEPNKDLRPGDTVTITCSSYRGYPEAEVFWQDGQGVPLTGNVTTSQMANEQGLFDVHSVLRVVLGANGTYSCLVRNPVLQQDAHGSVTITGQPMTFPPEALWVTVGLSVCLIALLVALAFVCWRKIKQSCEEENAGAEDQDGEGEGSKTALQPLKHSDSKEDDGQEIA
Kind of assay: flow cytometry titration of purified His6-tagged fusion on MS1-B7-H3 cells, anti-His6 FITC, 1:1 model.

Assay [2] addresses T1, human B7-H3 expressed by Mile Sven 1 …. Kind of assay: flow cytometry titration of purified His6-tagged Gp2 on MS1-B7-H3 cells, anti-His6 FITC, 1:1 model.

Numbering of substitutions follows the chain as printed.

B1: Gp21.4.4-L15-SrtA (designed binder)
chain: KFWATVQHVYSDFGFEAPVYAATLDEALQLAEVQYANSIFTVTRVRPGSGGGSGGGKGGGGTQAKPQIPKDKSKVAGYIEIPDADIKEPVYPGPATPEQLNRGVSFAEENESLDDQNISIAGHTFIDRPNYQFTNLKAAKKGSMVYFKVGNETRKYKMTSIRDVKPTDVGVLDEQKGKDKQLTLITCDDYNEKTGVWEKRKIFVATEVKHHHHHH
notes: range 60-206; also called Gp2-L15-SrtA fusion; Gp2 fusion construct
Molecule B1 returned a Kd in assay [1] of 1.8 nM.

B2: Gp2 1.4.3 (designed binder)
chain: KFWATVQHVYSDFGFEVPVYAATLDEALQLAEVRYANSIFMVTRVRPHHHHHH
notes: Purified from E. coli (pET-24b, NheI/BamHI cloning)
B2 showed a Kd in assay [2] of 3.4 nM.

B3: Gp2 1.4.4 (designed binder)
chain: B2 chain with V17A, R34Q, M41T
notes: as for B2
For B3, the Kd in assay [2] came to 1 nM.
